Numbered stars: 1 amine (or outer) side, 2 acyl side, 3 side chain; on linkers, the order of the positions; unused ones are H or OH. Bridge positions count the residues as written; N and C are the ends. Square brackets hold non-standard residues; d marks the D form. Primed or numbered codes have the meaning given here. KCOpipzaa″ = (2S)-2-amino-6-{[4-(carboxymethyl)piperazine-1-carbonyl]amino}hexanoic acid, O=C(NCCCC[C@H](N[*:1])C(=O)[*:2])N1CCN(CC(=O)[*:3])CC1; Hgn″ = (2S)-2-amino-5-carbamoylpentanoic acid (homoglutamine), NC(=O)CCC[C@H](N[*:1])C(=O)[*:2]; Trp(1-Me,7-Cl) = Cn1cc(C[C@H](N)C(=O)O)c2cccc(Cl)c21; dPhe(3-CONH2) = NC(=O)c1cccc(C[C@@H](N)C(=O)O)c1; Trp(1-Me) = Cn1cc(C[C@H](N)C(=O)O)c2ccccc21; NMe3Pal = CN[C@@H](Cc1cccnc1)C(=O)O; Gly(cBu) = N[C@H](C(=O)O)C1CCC1
Molecular target: T1, Recombinant Human EphA2 Fc Protein (Fc tag, Elabscience) (human, UniProt P29317 24-534)
T1 construct: Bought protein (Elabscience), captured with the Human Antibody Capture kit; also called hEphA2; not shown: Fc tag of the commercial protein
T1 sequence (P29317 24-534 limits assumed): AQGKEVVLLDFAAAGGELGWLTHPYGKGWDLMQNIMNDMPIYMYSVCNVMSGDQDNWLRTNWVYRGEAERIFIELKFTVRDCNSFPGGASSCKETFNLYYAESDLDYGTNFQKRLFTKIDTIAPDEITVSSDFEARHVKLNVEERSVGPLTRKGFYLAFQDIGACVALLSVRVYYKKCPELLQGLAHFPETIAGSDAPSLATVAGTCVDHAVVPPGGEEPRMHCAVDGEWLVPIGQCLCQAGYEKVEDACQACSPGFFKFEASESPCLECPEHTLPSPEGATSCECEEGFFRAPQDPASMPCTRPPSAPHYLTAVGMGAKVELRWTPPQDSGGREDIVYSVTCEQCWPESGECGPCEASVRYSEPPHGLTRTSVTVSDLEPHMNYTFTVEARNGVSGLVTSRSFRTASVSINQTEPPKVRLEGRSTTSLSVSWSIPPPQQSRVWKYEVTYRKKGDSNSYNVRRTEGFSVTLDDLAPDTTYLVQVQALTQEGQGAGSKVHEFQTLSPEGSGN
Assay: SPR Biacore T200, EphA2-Fc captured, single-cycle kinetics; grade, legend 0 < A ≤ 1 nM
Protocol: The HBS-P+ buffer (10 mM HEPES (pH7.4), 150 mM NaCl, 0.05% (v/V) Surfactant P20) containing 1% DMSO was used as running buffer. Recombinant Human EphA2 Fc Protein (Fc tag, Elabscience) was captured by Human Antibody Capture kit (Cytiva). Peptide samples in DMSO were diluted with running buffer, and prepared five serial dilutions. Using these serial dilutions, kinetics of peptides against EphA2 was measured at a flow rate of 30 mL/min at 25° C. The method adopted for sample measurement was a single-cycle kinetics method. The analysis was conducted using the evaluation software 3.0 provided with Biacore T200. Kinetics fitting was done on the difference data obtained by subtracting the baseline data from sample measurement data. KD values were calculated based on the association rate constant (ka) and dissociation rate constant (kd).

Kd: ≤ 1 nM
B1: PDC_EphA2-00019438 (peptide)
peptide: {CH2CO}-[dPhe(3-CONH2)][NMe3Pal]N[Gly(cBu)][Hgn″][NMe3Pal][Trp(1-Me,7-Cl)][KCOpipzaa″][Trp(1-Me)]T[Hgn″]C-NH2
modifications: thioether N-12
SMILES: C[C@@H](O)[C@@H]1NC(=O)[C@H](Cc2cn(C)c3ccccc23)NC(=O)[C@H](CCCCNC(=O)N2CCN(CC(=O)O)CC2)NC(=O)[C@H](Cc2cn(C)c3c(Cl)cccc23)NC(=O)[C@H](Cc2cccnc2)N(C)C(=O)[C@H](CCCC(N)=O)NC(=O)[C@H](C2CCC2)NC(=O)[C@H](CC(N)=O)NC(=O)[C@H](Cc2cccnc2)N(C)C(=O)[C@@H](Cc2cccc(C(N)=O)c2)NC(=O)CSC[C@@H](C(N)=O)NC(=O)[C@H](CCCC(N)=O)NC1=O

— US20260098061A1, “EPHA2-BINDING PENDING PEPTIDE AND COMPOSITION COMPRISING SAME” (PeptiDream Inc., priority 2022, published 2026)
